Data as given in patent US20140178329A1 (INSTITUCIO CATALANA DE RECERCA I ESTUDIS AVANCATS ICREA, published 2014).
Values belong to the binder of their own block, whether it stands above or below them.

Key:
human BCMA-Fc [1] = molecular target: T1, human BCMA-Fc (human, UniProt Q02223 2-54, limits assumed); experiment: binding test not named (data not shown)
T1 construct: Generated in-house; not shown: Fc portion of human IgG1
T1 sequence (looked up): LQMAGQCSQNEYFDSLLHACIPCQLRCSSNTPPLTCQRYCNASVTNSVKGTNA

human TACI-Fc [2] = molecular target: T2, human TACI-Fc (human, UniProt O14836 2-160, limits assumed); experiment: binding test not named (data not shown)
T2 construct: Generated in-house; not shown: Fc portion of human IgG1
T2 sequence (looked up): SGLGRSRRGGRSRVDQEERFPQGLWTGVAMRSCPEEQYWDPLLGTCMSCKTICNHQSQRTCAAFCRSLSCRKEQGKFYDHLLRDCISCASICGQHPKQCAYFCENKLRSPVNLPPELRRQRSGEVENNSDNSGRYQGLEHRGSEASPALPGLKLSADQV

human BCMA-Fc [3] = molecular target: T1, human BCMA-Fc; experiment: SPR (Biacore), affinities of R206E for BCMA-Fc and TACI-Fc compared
Description: (§1) FIG. 10: Surface Plasmon Resonance sensorgrams to illustrate binding of TACI-Fc and BCMA-Fc to WT and R206E-APRIL. Sensorgrams of human (Panel A) and mouse (Panel B) receptors binding to WT and R206E-APRIL. Stepwise increments in the curves represent sequential injections of receptor at the following concentrations: […]. In some cases, no value for affinity was calculated due to a low binding response or high drift.
In order to further assess the binding properties of the mutants and to measure apparent affinities and kinetics of receptor binding, a Surface Plasmon Resonance based receptor binding assay was performed on a Biacore 2000 (GE Healthcare, Diegem, Belgium). Anti-FLAG-M2 monoclonal antibody (Sigma-Aldrich) was diluted at a concentration of 5 μg/ml in 10 mM sodium acetate pH 4.5 and covalently immobilized (approx 1500 RU) to a CM-5 sensor chip (GE Healthcare), using standard amine coupling chemistry according to manufacturer's guidelines (Amine coupling kit, GE Healthcare). […] Dissociation was monitored for five minutes. […] For each combination of FLAG-APRIL and BCMA- or TACI-Fc, the apparent kₐ, kd and KD were calculated from a global fit of binding curves from at least three separate experiments. […]

human TACI-Fc [4] = molecular target: T2, human TACI-Fc; experiment: SPR (Biacore 2000), FLAG-APRIL captured by anti-FLAG M2, receptor-Fc injected, single cycle kinetics, 1:1 fit; SPR (BIAcore), mean ± error of fits; weak but measurable binding
Description: as §1
In order to further assess the binding properties of the mutants and to measure apparent affinities and kinetics of receptor binding, a Surface Plasmon Resonance based receptor binding assay was performed on a Biacore 2000 (GE Healthcare, Diegem, Belgium). Anti-FLAG-M2 monoclonal antibody (Sigma-Aldrich) was diluted at a concentration of 5 μg/ml in 10 mM sodium acetate pH 4.5 and covalently immobilized (approx 1500 RU) to a CM-5 sensor chip (GE Healthcare), using standard amine coupling chemistry according to manufacturer's guidelines (Amine coupling kit, GE Healthcare). The different FLAG-APRIL variants in the form of tissue culture supernatants were captured onto the chip via the FLAG-tag at 10 μl/minute for five minutes, giving capture levels ranging from 159 to 207 RU. As a reference lane, one of the flow cells was left free of soluble FLAG-APRIL, to control for any background binding. BCMA- or TACI-Fc were then injected for three minutes over all four flow cells at 30 μl/minutes at increasing concentrations (ranging from 1-50 nM) using the single cycle kinetics method at 25° C. Dissociation was monitored for five minutes. The resulting curves were fitted using a 1:1 Langmuir model using BIAevaluation software 4.1. For each combination of FLAG-APRIL and BCMA- or TACI-Fc, the apparent kₐ, kd and KD were calculated from a global fit of binding curves from at least three separate experiments. Non-specific binding in the reference cell was subtracted before curve fitting. […]

human BCMA-Fc [5] = molecular target: T1, human BCMA-Fc; experiment: SPR (Biacore 2000), FLAG-APRIL captured by anti-FLAG M2, receptor-Fc injected, single cycle kinetics, 1:1 fit
Description: as §1
(§2) In order to further assess the binding properties of the mutants and to measure apparent affinities and kinetics of receptor binding, a Surface Plasmon Resonance based receptor binding assay was performed on a Biacore 2000 (GE Healthcare, Diegem, Belgium). Anti-FLAG-M2 monoclonal antibody (Sigma-Aldrich) was diluted at a concentration of 5 μg/ml in 10 mM sodium acetate pH 4.5 and covalently immobilized (approx 1500 RU) to a CM-5 sensor chip (GE Healthcare), using standard amine coupling chemistry according to manufacturer's guidelines (Amine coupling kit, GE Healthcare). The different FLAG-APRIL variants in the form of tissue culture supernatants were captured onto the chip via the FLAG-tag at 10 μl/minute for five minutes, giving capture levels ranging from 159 to 207 RU. As a reference lane, one of the flow cells was left free of soluble FLAG-APRIL, to control for any background binding. BCMA- or TACI-Fc were then injected for three minutes over all four flow cells at 30 μl/minutes at increasing concentrations (ranging from 1-50 nM) using the single cycle kinetics method at 25° C. Dissociation was monitored for five minutes. The resulting curves were fitted using a 1:1 Langmuir model using BIAevaluation software 4.1. For each combination of FLAG-APRIL and BCMA- or TACI-Fc, the apparent kₐ, kd and KD were calculated from a global fit of binding curves from at least three separate experiments. Non-specific binding in the reference cell was subtracted before curve fitting. Regeneration of the anti-FLAG antibody surface was carried out with a 10-minute injection at 30 μl/minute of a mixture of ⅓ volume of TBS pH 11.5, ⅓ volume of Ionic solution and ⅓ volume of water. The Ionic solution was comprised of KSCN (0.46 M), MgCl₂ (1.83 M), urea (0.92 M) and guanidine-HCl (1.83 M).

[6] = molecular target: T3, mouse BCMA-Fc (R&D Systems) (mouse; human, UniProt O88472 2-49, limits assumed); experiment: as above
T3 construct: Bought; also called mBCMA-Fc; murine BCMA-Fc; not shown: Fc portion of human IgG1
T3 chain (looked up): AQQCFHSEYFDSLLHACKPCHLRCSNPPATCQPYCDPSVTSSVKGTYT
Description: as §1, §2

human TACI-Fc [7] = molecular target: T2, human TACI-Fc; experiment: receptor-binding ELISA, human TACI-Fc coated, doubling dilutions of conditioned medium [TACI-Fc coating]
Description: (§3) FIG. 2: Production and real binding properties of the APRIL mutants. (Panel A) Production of APRIL variants in conditioned medium by transient transfection of 293T cells. Supernatants (10 μl of each) were analyzed by anti-FLAG immunoblotting. Upper panel: mutants predicted to be selective for BCMA. Lower panel: mutants predicted to be selective for TACI. All mutants were checked more than three times following independent rounds of transfection to assess their expression. (Panels B and C) Receptor binding ELISA to compare binding of the predicted BCMA- and TACI-specific APRIL variants to human BCMA-Fc and TACI-Fc. Bars, from left to right, represent doubling dilutions of the conditioned media starting from undiluted media. Relevant APRIL variants are shown with dark grey bars, WT APRIL with black bars and other variants with light grey bars. This is representative of three separate experiments performed with independent APRIL-containing cell-conditioned media.
(§4) The relative binding of the variants to either BCMA or TACI, was tested using a binding ELISA. […] Bound APRIL was detected with 1 μg/ml of HRP-coupled anti-FLAG M2 and visualized with 2,2′-azino-bis(3-ethylbenzothiazoline-6-sulphonic acid (ABTS) (Sigma-Aldrich). The absorbance was read at 405 nm using a UV-VIS microplate reader (BioRad, Veenendaal, The Netherlands).

[8] = molecular target: T4, mouse TACI-Fc (R&D Systems) (mouse; human, UniProt Q9ET35 5-129, limits assumed); experiment: receptor-binding ELISA, mouse TACI-Fc coated [TACI selective, Ms TACI-Fc coated]
T4 construct: Bought; also called mTACI-Fc; murine TACI-Fc; not shown: Fc portion of human IgG1
T4 sequence (looked up): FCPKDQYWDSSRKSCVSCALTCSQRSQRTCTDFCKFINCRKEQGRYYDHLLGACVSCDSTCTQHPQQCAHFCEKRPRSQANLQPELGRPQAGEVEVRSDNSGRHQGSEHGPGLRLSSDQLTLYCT
Description: (§5) The relative binding of the variants to either BCMA or TACI, was tested using a binding ELISA. The following proteins were used: human BCMA-Fc, human TACI-Fc (both generated in-house), mouse BCMA-Fc (R&D Systems, Abingdon, UK), mouse TACI-Fc (R&D Systems); in all cases the Fc portion is from human IgG1. BCMA-Fc and TACI-Fc were coated on 96-well Nunc Maxisorp plates (Thermo Fischer Scientific, Roskilde, Denmark) at concentrations of 1 μg/ml and 2 μg/ml, respectively, in 0.5 M sodium bicarbonate buffer pH 9.5, overnight at 4° C. Plates were then blocked with 5% BSA for one hour at 37° C. Soluble APRIL variants in the form of tissue culture conditioned medium were then added to the plate for two hours at 37° C. Following APRIL binding, plates were washed three times with PBS, 0.05% TWEEN®20. Bound APRIL was detected with 1 μg/ml of HRP-coupled anti-FLAG M2 and visualized with 2,2′-azino-bis(3-ethylbenzothiazoline-6-sulphonic acid (ABTS) (Sigma-Aldrich). The absorbance was read at 405 nm using a UV-VIS microplate reader (BioRad, Veenendaal, The Netherlands).

[9] = molecular target: T3, mouse BCMA-Fc (R&D Systems); experiment: receptor-binding ELISA, mouse BCMA-Fc coated [TACI selective, Ms BCMA-Fc coated]
Description: as §5

human BCMA-Fc [10] = molecular target: T1, human BCMA-Fc; experiment: receptor-binding ELISA, human BCMA-Fc coated, doubling dilutions of conditioned medium [BCMA-Fc coating]
Description: as §3, §4

binding result (human BCMA-Fc [1]): no binding | binding result (human TACI-Fc [2]): no binding
B1: APRIL T175D-D205K double mutant (ligand)
chain: AVLTQKQKKQHSVLHLVPINATSKDDSDVTEVMWQPALRRGRGLQAQGYGVRIQDAGVYLLYSQVLFQDVDFTMGQVVSREGQGRQETLFRCIRSMPSHPKRAYNSCYSAGVFHLHQGDILSVIIPRARAKLNLSPHGTFLGFVKL
notes: also called T175D-D205Y/K; not shown: FLAG tag

fold selectivity for BCMA over TACI (comparison of affinities) (human BCMA-Fc [3]): 25 fold | Kd (human TACI-Fc [4]): 11 nM | koff (human TACI-Fc [4]): 0.01 s⁻¹ | kon (human TACI-Fc [4]): 2e+06 M⁻¹ s⁻¹ | Kd (human BCMA-Fc [5]): 0.46 nM | koff (human BCMA-Fc [5]): 0.00015 s⁻¹ | kon (human BCMA-Fc [5]): 330000 M⁻¹ s⁻¹ | Kd [6]: 0.095 nM | koff [6]: 0.00015 s⁻¹ | kon [6]: 1.6e+06 M⁻¹ s⁻¹
B2: APRIL-R206E (FLAG-tagged soluble variant) (ligand)
chain: AVLTQKQKKQHSVLHLVPINATSKDDSDVTEVMWQPALRRGRGLQAQGYGVRIQDAGVYLLYSQVLFQDVTFTMGQVVSREGQGRQETLFRCIRSMPSHPDEAYNSCYSAGVFHLHQGDILSVIIPRARAKLNLSPHGTFLGFVKL
notes: Used as conditioned medium; also called R206E-APRIL; not shown: FLAG tag

binding result (human BCMA-Fc [1]): no binding | binding result (human TACI-Fc [2]): no binding
B3: APRIL T175D-D205Y double mutant (ligand)
chain: AVLTQKQKKQHSVLHLVPINATSKDDSDVTEVMWQPALRRGRGLQAQGYGVRIQDAGVYLLYSQVLFQDVDFTMGQVVSREGQGRQETLFRCIRSMPSHPYRAYNSCYSAGVFHLHQGDILSVIIPRARAKLNLSPHGTFLGFVKL
notes: as for B1

binding result (human BCMA-Fc [1]): no binding | binding result (human TACI-Fc [2]): no binding
B4: APRIL T175D-R206E double mutant (ligand)
chain: AVLTQKQKKQHSVLHLVPINATSKDDSDVTEVMWQPALRRGRGLQAQGYGVRIQDAGVYLLYSQVLFQDVDFTMGQVVSREGQGRQETLFRCIRSMPSHPDEAYNSCYSAGVFHLHQGDILSVIIPRARAKLNLSPHGTFLGFVKL
notes: not shown: FLAG tag

binding result [8]: no binding | binding result [9]: no binding
B5: APRIL-R231A (FLAG-tagged soluble variant) (ligand)
chain: AVLTQKQKKQHSVLHLVPINATSKDDSDVTEVMWQPALRRGRGLQAQGYGVRIQDAGVYLLYSQVLFQDVTFTMGQVVSREGQGRQETLFRCIRSMPSHPDRAYNSCYSAGVFHLHQGDILSVIIPAARAKLNLSPHGTFLGFVKL
notes: also called receptor-dead R231A variant; not shown: FLAG tag
binding result (human TACI-Fc [7]): no binding (tested: undiluted conditioned medium) | binding result (human BCMA-Fc [10]): no binding (tested: undiluted conditioned medium)
